Source: patent US20100048604A1, “Ligands for Aldoketoreductases” (priority 2004, published 2010)

Experiments:
Assay in all cases: Steady state kinetic parameters of fluorogenic substrates with purified AKR1C isozymes
Type in all cases: biochemical, human
Settings in all cases: other: isozyme 1C2, potassium phosphate buffer pH 6, NADPH, fluorimetric
[1] = substrate: CC(=O)c1cc(=O)oc2c3c(ccc12)NCCC3
Source text: (§1) AKR1C2 and AKR1C3 Selective Probes: Probes (5a-5i) were examined as substrates for the four purified human HSD isozymes (AKR1C1-AKR1C4) under standard assay conditions [catalytic quantities of enzyme, an excess of cofactor (NADPH)]. The initial reaction rates were used to derive standard kinetic parameters (kcat and Km, Materials and Methods).
(§2) Substrate tolerance of AKR1Cs: Isozyme Activity with 5a-5i: Activity of the second generation of fluorogenic substrates with the AKR1C isozymes was determined as follows. To a STARNA semi-micro fluorimeter cell (with 4 polished windows) was added 100 μL of 1 M potassium phosphate buffer (pH 6), 840 μL doubly deionized water, and 20 μL of 12.5 mM NADPH. After mixing the aqueous components thoroughly, 20 μL of acetonitrile was added as a cosolvent and mixed well. 20 μL of 2.5 mM second generation fluorogenic ketone in acetonitrile (5a-5i) was then added and mixed. 4 μL of undiluted AKR1C (provided generously by the Penning lab at concentrations of 2.5 mg/mL) were then added to the cuvette for a total of 10 μg purified enzyme in the 1 mL assay volume. Fluorescence arising from the respective alcohol reduction product was then monitored over the course of 5-10 minutes.
(§3) Binding constant and catalytic rates (Km and kcat) of the second generation of fluorogenic substrates was determined as follows. To a STARNA semi-micro fluorometer cell (with 4 polished windows) was added 100 μL of 1 M potassium phosphate buffer (pH 6), 840 μL doubly deionized water, and 20 AL of 12.5 mM NADPH. After mixing the aqueous components thoroughly, 20 μL of acetonitrile was added as a cosolvent and mixed well. 20 μL of the second generation fluorogenic ketone (5a-5i) was then added and mixed to achieve assay concentrations of 5Km to Km/5. To initiate the reduction, 2 or 4 μL of diluted AKR1C (1:2 to 1:100, depending on the kinetics of a particular isozyme's reduction of a substrate) was then added to the cuvette. Fluorescence arising from the respective alcohol reduction product was then monitored over the course of 3 minutes (Excitation and emission band pass slits both at 4 nm, lamp 700 V, λexc 410 nm, λem 510). The rate of product formation, expressed in units of nanomoles per minute, were calculated according to previously published procedures (Wierzchowski, J.; Dafeldecker, W. P.; Holmquist, B.; Vallee, B. L. Anal. Biochem. 1989, 178, 57-62):
(§4) initial rate=[nst×(Ft−F0)/(Fst)]/t (1)
(§5) where Ft and F0 represent the fluorescence at times t and 0 minutes, nst is the nanomoles of product in a known concentration of product, and Fst is the fluorescence resulting from nst of product. Kinetic parameters were approximated by GraFit (Erithacus Software, Surrey, UK) nonlinear regression analysis program to fit the untransformed data to a hyperbolic function as originally described (Wierzchowski, J.; Dafeldecker, W. P.; Holmquist, B.; Vallee, B. L. Anal. Biochem. 1989, 178, 57-62). Reported enzymatic kinetic parameters are the average of three independent determinations from three different preparations of substrate and enzyme.

[2] = substrate: CC(=O)c1cc(=O)oc2c3c4c(cc12)CCCN4CCC3
Source text: as §1, §2, §3, §4, §5

[3] = substrate: CC(=O)c1cc(=O)oc2cc(N(C)C)ccc12
Source text: as §1, §2, §3, §4, §5

[4] = substrate: CC(=O)c1cc(=O)oc2cc3c(cc12)CCCN3
Source text: as §1, §2, §3, §4, §5

[5] = substrate: O=C(c1ccccc1)c1cc(=O)oc2c3c4c(cc12)CCCN4CCC3
Source text: as §1, §2, §3, §4, §5

[6] = substrate: O=C1CCc2c1c1cc3c4c(c1oc2=O)CCCN4CCC3
Source text: as §1, §2, §3, §4, §5

B1: AKR1C2 (Homo sapiens) (protein)
chain: MDSKYQCVKLNDGHFMPVLGFGTYAPAEVPKSKALEAVKLAIEAGFHHIDSAHVYNNEEQVGLAIRSKIADGSVKREDIFYTSKLWSNSHRPELVRPALERSLKNLQLDYVDLYLIHFPVSVKPGEEVIPKDENGKILFDTVDLCATWEAMEKCKDAGLAKSIGVSNFNHRLLEMILNKPGLKYKPVCNQVECHPYFNQRKLLDFCKSKDIVLVAYSALGSHREEPWVDPNSPVLLEDPVLCALAKKHKRTPALIALRYQLQRGVVVLAKSYNEQRIRQNVQVFEFQLTSEEMKAIDGLNRNVRYLTLDIFAGPPNYPFSDEY
notes: gift of the Penning lab (University of Pennsylvania School of Medicine)
[1]
  Km: 4.8 µM
[2]
  Km: 7.3 µM
[3]
  Km: 7.2 µM
[4]
  Km: 43.3 ± 4.4 4.3 ± 0.2 μM
[5]
  Km: 3 µM
[6]
  Km: 4.5 µM
  kcat: 1.6 0.40 7.2 no activity
  kcat/Km: 0.39 0.08 56 min^−1 μM^−1
